Measurements taken from article PMC3087300 (Bioorganic & medicinal chemistry, 2009).
Like-named read-outs stand apart in the source and are kept apart here.

Target: PSA (Homo sapiens, UniProt P07288)
Sequence (P07288 25-261): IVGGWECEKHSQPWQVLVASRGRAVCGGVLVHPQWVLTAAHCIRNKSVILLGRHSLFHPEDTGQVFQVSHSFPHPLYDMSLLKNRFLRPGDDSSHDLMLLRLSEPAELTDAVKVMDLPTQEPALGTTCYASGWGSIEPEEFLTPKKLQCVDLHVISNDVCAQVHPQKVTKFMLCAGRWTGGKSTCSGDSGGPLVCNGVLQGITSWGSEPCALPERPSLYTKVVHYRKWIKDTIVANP

(Re) SAAC-SSQn(boro)L [Compound 47]
Ki (P2-P3 screen boronic acids and PSA imaging agents, Table 2): 28.4 ± 2.1 nM | Ki (read-out: Ki for PSA, boronic acid inhibitors): 28 nM
